Test results reported in PMC7593965.

Target: isolated C-terminal domain of FusB (Pectobacterium carotovorum LMG2410)
Test: ITC; MicroCal iTC200, 25°C, 10 mM Tris-HCl (pH 7.5)-150 mM NaCl; titrant (FusANTR-GFP, GFP or FerSp) injected in 2 μl steps into FusBCTD, FusBCTD R176K/R177K or TonBCTD in the cell

| Substance | Kd [µM] |
| --- | --- |
| N-terminal region of FusA (residues 21 to 66) fused to green fluorescent protein (from UniProt C6DG80 21-66) (domain or fragment) | 57 |
| spinach ferredoxin (from UniProt P00221 51-147) (natural protein) | 8.7 |
